Assay results from the supplement of paper PMC7125110.
± gives the standard error. For some of these results: Variants at the floor of the assay were thinned out.

B1: glmS ribozyme (parent)
chain: AUAAAAGCGCCAGAACUACAGAAAUGUAGUUGACGAGGAGGAGGUUUAUCGAAUUUUCGGCGGAUGCCUCCAAA

How the values were obtained:
Settings in all cases: with glucosamine-6-phosphate
glucosamine-6-phosphate [1] = variants of: B1; assay: kcat; higher = faster cleavage; RNA array
In short: (§1)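 E. coli RNA polymerase transcribed barcoded ribozyme variants in situ on sequenced MiSeq chips, which were tracked via a hybridised Cy3 probe at 37 °C. Tiles were imaged over ~14 h after glucosamine-6-phosphate (40 μM to 10 mM) in HEPES/KCl/Mg(OAc)2 buffer was flowed in. Normalised per-tile medians were fit to one- or two-exponential decays for kobs, and kcat and KM came from weighted Michaelis–Menten fits.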

glucosamine-6-phosphate [2] = variants of: B1; assay: KM; higher = weaker cofactor use; RNA array
In short: as §1

glucosamine-6-phosphate [3] = variants of: B1; assay: self-cleavage kobs at 2500 uM GlcN6P; higher = faster cleavage; RNA array
In short: as §1

glucosamine-6-phosphate [4] = variants of: B1; assay: self-cleavage kobs at 10000 uM GlcN6P; higher = faster cleavage; RNA array
In short: as §1

glucosamine-6-phosphate [5] = variants of: B1; assay: self-cleavage kobs at 40 uM GlcN6P; higher = faster cleavage; RNA array
In short: as §1

glucosamine-6-phosphate [6] = variants of: B1; assay: self-cleavage kobs at 160 uM GlcN6P; higher = faster cleavage; RNA array
In short: as §1

glucosamine-6-phosphate [7] = variants of: B1; assay: self-cleavage kobs at 640 uM GlcN6P; higher = faster cleavage; RNA array
In short: as §1

Variant	kcat (glucosamine-6-phosphate [1]) [s⁻¹]	KM (glucosamine-6-phosphate [2]) [µM]	self-cleavage kobs at 2500 uM GlcN6P (glucosamine-6-phosphate [3]) [s⁻¹]	self-cleavage kobs at 10000 uM GlcN6P (glucosamine-6-phosphate [4]) [s⁻¹]	self-cleavage kobs at 40 uM GlcN6P (glucosamine-6-phosphate [5]) [s⁻¹]	self-cleavage kobs at 160 uM GlcN6P (glucosamine-6-phosphate [6]) [s⁻¹]	self-cleavage kobs at 640 uM GlcN6P (glucosamine-6-phosphate [7]) [s⁻¹]
G38C C70A	1.54e-05 ± 2.7e-06	–	–	–	–	–	–
G37C A53C	1.74e-05 ± 7.2e-06	–	–	–	–	–	–
G37A U65A	0.000179 ± 2.2e-05	4340 ± 1300	7.66e-05 ± 1.9e-05	0.000124 ± 1.4e-05	–	–	–
G38A U55C	< 1e-05	37.7 ± 15	–	–	–	–	–
G37A C71U	0.00282 ± 0.00026	2690 ± 370	0.0015 ± 0.00028	0.00225 ± 0.00014	4.51e-05 ± 4.2e-06	0.000172 ± 1.9e-05	0.000478 ± 4.3e-05
G37A C58A	1.97e-05 ± 3.4e-06	–	–	–	–	–	–
G37U U45A	< 1e-05	–	–	–	–	< 1e-05	–
A39G G40U U55C C71A	0.00728 ± 0.0021	2200 ± 930	0.00448 ± 0.00083	0.00562 ± 0.001	0.000207 ± 4.1e-05	0.000368 ± 8.6e-05	0.00178 ± 0.00043
A39U U57A	0.0002 ± 1.2e-05	4780 ± 530	7.13e-05 ± 1e-05	0.000134 ± 1.5e-05	–	–	2.12e-05 ± 7.4e-06
G37A A42U	0.000872 ± 0.00012	2220 ± 480	0.00052 ± 6.6e-05	0.000669 ± 9.4e-05	2.47e-05 ± 1.1e-05	5.06e-05 ± 1.2e-05	0.000193 ± 2.3e-05
G37A A42G	0.00683 ± 0.0013	3670 ± 920	0.00251 ± 0.00044	0.00549 ± 0.00094	8.75e-05 ± 1.5e-05	0.000301 ± 8.8e-05	0.000936 ± 0.00014
A36U U69C	2.28e-05 ± 3.7e-06	–	–	–	–	–	–
G38A G51U	< 1e-05	–	–	< 1e-05	< 1e-05	–	< 1e-05
G37U U54G	< 1e-05	–	–	–	< 1e-05	< 1e-05	< 1e-05
G35A C50G	0.000781 ± 0.00018	1190 ± 540	0.000615 ± 0.00015	–	–	–	0.000273 ± 0.00012
A39C U47G	0.00107 ± 0.00043	–	0.000425 ± 0.0001	0.00109 ± 0.0002	–	–	0.000286 ± 5.5e-05
G35A G38U	< 1e-05	–	–	–	–	< 1e-05	–
G35A G38C	< 1e-05	–	–	–	–	–	< 1e-05
C34U C50A	1.45e-05 ± 5.7e-06	–	–	–	–	–	–
G35U G59U G66U	< 1e-05	–	–	–	–	–	< 1e-05
G37U U49A C61G C70G	2.13e-05 ± 6.5e-06	–	–	–	–	–	–
A39U C58G	0.000106 ± 3.3e-06	9290 ± 520	2.25e-05 ± 1e-05	5.48e-05 ± 1.2e-05	–	–	–

Variant	kcat (glucosamine-6-phosphate [1]) [s⁻¹]	KM (glucosamine-6-phosphate [2]) [µM]	self-cleavage kobs at 2500 uM GlcN6P (glucosamine-6-phosphate [3]) [s⁻¹]	self-cleavage kobs at 10000 uM GlcN6P (glucosamine-6-phosphate [4]) [s⁻¹]	self-cleavage kobs at 40 uM GlcN6P (glucosamine-6-phosphate [5]) [s⁻¹]	self-cleavage kobs at 160 uM GlcN6P (glucosamine-6-phosphate [6]) [s⁻¹]	self-cleavage kobs at 640 uM GlcN6P (glucosamine-6-phosphate [7]) [s⁻¹]
G37U C61A	1.07e-05 ± 1.5e-06	–	–	< 1e-05	–	–	–
A39G C58G	0.000195 ± 2.9e-05	3340 ± 1100	7.24e-05 ± 1.7e-05	0.000151 ± 2.3e-05	–	–	3.89e-05 ± 1.2e-05
A39G C58U	7.06e-05 ± 1.1e-06	2990 ± 150	3.24e-05 ± 1.1e-05	5.43e-05 ± 8.5e-06	< 1e-05	–	–
A39C U55A	0.00799 ± 0.0028	2790 ± 1400	0.00295 ± 0.00058	0.00755 ± 0.0012	0.000201 ± 4.2e-05	0.000429 ± 7.8e-05	0.00143 ± 0.00023
C34U G43A	< 1e-05	–	–	–	< 1e-05	< 1e-05	–
G38C G51C	1.04e-05 ± 4.5e-06	–	–	–	–	–	–
G37U G38C	< 1e-05	–	< 1e-05	–	< 1e-05	< 1e-05	–
G35C U65G	< 1e-05	1500 ± 360	< 1e-05	–	< 1e-05	< 1e-05	–
G38U A39G C50G	3.57e-05 ± 8.1e-06	–	–	–	–	–	–
C34U G60C	< 1e-05	–	–	–	< 1e-05	–	–
G38C C61A	< 1e-05	–	< 1e-05	–	–	< 1e-05	–
A39C C70A	< 1e-05	–	–	–	< 1e-05	–	< 1e-05
G35C G40U	< 1e-05	–	< 1e-05	< 1e-05	< 1e-05	–	< 1e-05
G37U U57G	< 1e-05	–	< 1e-05	–	–	–	–
G37U U57C	< 1e-05	–	< 1e-05	< 1e-05	–	–	–
G38A C61G	1.44e-05 ± 3.1e-06	–	–	–	–	–	–
G38A C61A	< 1e-05	–	–	–	–	–	–
G37A U46G	0.000363 ± 0.00014	–	0.000159 ± 2.3e-05	0.000421 ± 6.2e-05	–	4.31e-05 ± 1.7e-05	0.000102 ± 1.4e-05
G40A C50U U54C C68U	< 1e-05	–	–	< 1e-05	< 1e-05	< 1e-05	–
G37C C61A	< 1e-05	–	–	–	–	–	–
A39C A48U	0.000107 ± 1.8e-05	2930 ± 1400	5.68e-05 ± 1.3e-05	8.1e-05 ± 1.2e-05	< 1e-05	< 1e-05	–
